Like-named read-outs stand apart in the source and are kept apart here.
Experiments:
activin B = molecular target: T1, activin B (UniProt P09529 293-407); experiment: Biacore SPR
T1 sequence (looked up): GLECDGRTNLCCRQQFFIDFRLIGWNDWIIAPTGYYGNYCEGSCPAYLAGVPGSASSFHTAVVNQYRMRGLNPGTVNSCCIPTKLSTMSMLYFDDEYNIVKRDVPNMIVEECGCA
Description: (§1) Ligands were injected and allowed to flow over the captured receptor protein.

activin A = molecular target: T2, activin A (UniProt P08476 311-426); experiment: Biacore SPR
T2 sequence (looked up): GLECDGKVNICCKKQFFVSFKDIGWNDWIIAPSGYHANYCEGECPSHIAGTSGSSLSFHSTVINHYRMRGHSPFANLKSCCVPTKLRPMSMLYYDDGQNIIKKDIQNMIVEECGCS
Description: as §1

BMP6 [1] = molecular target: T3, BMP6 (UniProt P22004 382-513, limits assumed); experiment: Biacore SPR
T3 sequence (looked up): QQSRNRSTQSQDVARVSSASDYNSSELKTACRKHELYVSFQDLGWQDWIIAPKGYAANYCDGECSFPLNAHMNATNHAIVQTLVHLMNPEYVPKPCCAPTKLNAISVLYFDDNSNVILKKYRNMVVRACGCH
Description: as §1

BMP5 [2] = molecular target: T4, BMP5 (UniProt P22003 317-454, limits assumed); experiment: Biacore SPR
T4 sequence (looked up): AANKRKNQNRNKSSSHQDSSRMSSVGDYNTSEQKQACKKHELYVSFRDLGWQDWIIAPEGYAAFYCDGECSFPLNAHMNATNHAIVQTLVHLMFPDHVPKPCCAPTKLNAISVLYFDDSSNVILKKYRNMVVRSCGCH
Description: as §1

GDF8 = molecular target: T5, GDF8 (UniProt O14793 267-375); experiment: Biacore SPR
T5 construct: also called myostatin
T5 sequence (looked up): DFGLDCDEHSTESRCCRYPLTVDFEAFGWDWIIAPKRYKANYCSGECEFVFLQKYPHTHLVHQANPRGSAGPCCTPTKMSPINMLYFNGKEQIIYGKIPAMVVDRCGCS
Description: as §1

BMP9 [3] = molecular target: T6, BMP9 (UniProt Q9UK05 320-429); experiment: Biacore SPR
T6 construct: also called GDF2
T6 sequence (looked up): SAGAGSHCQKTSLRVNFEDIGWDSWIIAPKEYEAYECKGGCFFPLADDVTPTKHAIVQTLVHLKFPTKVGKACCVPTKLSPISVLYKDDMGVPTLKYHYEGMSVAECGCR
Description: as §1

GDF3 = molecular target: T7, GDF3 (UniProt Q9NR23 251-364); experiment: Biacore SPR
T7 sequence (looked up): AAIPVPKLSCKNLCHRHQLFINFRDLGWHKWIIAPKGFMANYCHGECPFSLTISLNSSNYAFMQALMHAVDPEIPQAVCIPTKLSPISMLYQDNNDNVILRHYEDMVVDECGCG
Description: as §1

BMP10 [4] = molecular target: T8, BMP10 (UniProt O95393 317-424); experiment: Biacore SPR
T8 sequence (looked up): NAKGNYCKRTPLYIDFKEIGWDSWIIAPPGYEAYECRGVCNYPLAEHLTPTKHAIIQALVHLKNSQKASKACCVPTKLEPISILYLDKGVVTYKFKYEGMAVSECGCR
Description: as §1

GDF11 = molecular target: T9, GDF11 (UniProt O95390 299-407); experiment: Biacore SPR
T9 construct: also called BMP11
T9 sequence (looked up): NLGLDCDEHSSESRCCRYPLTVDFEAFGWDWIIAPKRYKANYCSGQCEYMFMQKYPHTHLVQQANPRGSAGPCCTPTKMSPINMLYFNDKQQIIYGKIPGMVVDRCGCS
Description: as §1

TGFβ2 [5] = molecular target: T10, TGFβ2 (human, UniProt P61812 303-414); experiment: Biacore SPR; kinetics indeterminate (transient)
T10 construct: Human (PeproTech) is stated for the A549 reporter assay; also called TGF-beta2
T10 sequence (looked up): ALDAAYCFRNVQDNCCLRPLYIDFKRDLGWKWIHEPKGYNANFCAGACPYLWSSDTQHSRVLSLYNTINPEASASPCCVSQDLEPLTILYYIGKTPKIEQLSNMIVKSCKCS
Description: (§2) A Biacore™-based binding assay was used to compare ligand binding selectivity of the TGFβRIISHORT-Fc:ALK1-Fc heterodimeric complex described above with that of TGFβRIISHORT-Fc and ALK1-Fc homodimeric complexes. […] Ligands were injected and allowed to flow over the captured receptor protein.

TGFβ1 [6] = molecular target: T11, TGFβ1 (human, UniProt P01137 279-390); experiment: cell-based or functional assay
TGFβ2 [7] = molecular target: T10, TGFβ2; experiment: cell-based or functional assay
TGFβ1 [8] = molecular target: T11, TGFβ1; experiment: Biacore SPR
Description: as §2

TGFβ1 [9] = molecular target: T11, TGFβ1; experiment: Biacore SPR; remark: listed apart in the source
Description: (§3) The heteromeric or homomeric protein complexes were independently captured onto the system using an anti-Fc antibody. Ligands were injected and allowed to flow over the captured receptor protein.

TGFβ2 [10] = molecular target: T10, TGFβ2; experiment: Biacore SPR
Description: as §3

BMP6 [11] = molecular target: T3, BMP6; experiment: Biacore SPR; remark: listed apart in the source
BMP2 = BMP2 (UniProt P12643 283-396); experiment: Biacore SPR
Description: as §1

BMP4 = molecular target: T12, BMP4 (UniProt P12644 293-408); experiment: Biacore SPR
T12 sequence (looked up): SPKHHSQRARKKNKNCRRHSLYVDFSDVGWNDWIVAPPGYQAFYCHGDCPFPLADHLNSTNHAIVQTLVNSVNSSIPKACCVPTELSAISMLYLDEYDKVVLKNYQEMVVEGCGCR
Description: as §1

BMP6 [12] = molecular target: T3, BMP6; experiment: Biacore SPR; remark: listed apart in the source
Description: as §1

BMP5 [13] = molecular target: T4, BMP5; experiment: Biacore SPR; remark: listed apart in the source
Description: as §1

BMP7 = molecular target: T13, BMP7 (UniProt P18075 293-431); experiment: Biacore SPR
T13 sequence (looked up): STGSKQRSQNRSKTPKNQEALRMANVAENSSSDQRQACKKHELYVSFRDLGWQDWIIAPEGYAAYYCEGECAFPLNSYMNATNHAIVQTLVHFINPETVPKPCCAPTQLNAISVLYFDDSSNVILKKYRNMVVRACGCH
Description: as §1

BMP9 [14] = molecular target: T6, BMP9; experiment: Biacore SPR; remark: listed apart in the source
Description: as §1

BMP10 [15] = molecular target: T8, BMP10; experiment: Biacore SPR; remark: listed apart in the source
Description: as §1

GDF6 = molecular target: T14, GDF6 (UniProt Q6KF10 336-455, limits assumed); experiment: Biacore SPR
T14 construct: also called BMP13
T14 sequence (looked up): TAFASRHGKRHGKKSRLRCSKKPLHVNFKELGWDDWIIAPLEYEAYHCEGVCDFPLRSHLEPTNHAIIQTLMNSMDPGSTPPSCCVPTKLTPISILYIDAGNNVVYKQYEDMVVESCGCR
Description: as §1

BMP15 = molecular target: T15, BMP15 (UniProt O95972 268-392); experiment: Biacore SPR
T15 construct: also called GDF9b
T15 sequence (looked up): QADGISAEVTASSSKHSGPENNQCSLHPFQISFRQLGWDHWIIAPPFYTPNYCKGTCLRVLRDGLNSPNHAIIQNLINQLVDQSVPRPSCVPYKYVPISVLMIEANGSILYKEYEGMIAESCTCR
Description: as §1

T11 sequence (P01137 279-390 limits assumed): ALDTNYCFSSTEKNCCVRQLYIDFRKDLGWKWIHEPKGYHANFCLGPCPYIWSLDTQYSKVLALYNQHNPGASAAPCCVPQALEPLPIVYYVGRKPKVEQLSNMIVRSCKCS
Sequence of BMP2 (P12643 283-396 limits assumed): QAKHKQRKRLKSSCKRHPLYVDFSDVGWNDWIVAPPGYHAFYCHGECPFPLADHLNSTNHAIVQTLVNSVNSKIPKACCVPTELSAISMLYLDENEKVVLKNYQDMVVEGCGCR

B1: ALK7-Fc homodimer (Fc fusion, UniProt Q8NER5 22-113, looked up, not shown: a dimerising Fc or GST)
chain: LSPGLKCVCLLCDSSNFTCQTEGACWASVMLTNGKEQVIKSCVSLPELNAQVFCHSSNNVTKTECCFTDFCNNITLHLPTASPNAPKLGPME
notes: extracellular domain
binding result (activin B): no binding | binding result (activin A): no binding | binding result (BMP6 [1]): no binding | binding result (BMP5 [2]): no binding | binding result (GDF8): no binding | binding result (BMP9 [3]): no binding | binding result (GDF3): no binding | binding result (BMP10 [4]): no binding | binding result (GDF11): no binding

B2: TGFβRIISHORT-Fc homodimer (Fc fusion)
chain: TIPPHVQKSVNNDMIVTDNNGAVKFPQLCKFCDVRFSTCDNQKSCMSNCSITSICEKPQEVCVAVWRKNDENITLETVCHDPKLPYHDFILEDAASPKCIMKEKKKPGETFFMCSCSSDECNDNIIFSEEYNTSNPD
Kd (TGFβ2 [5]): > 44 nM | IC50 (pM), CAGA12-luciferase reporter gene assay in A549 cells, TGFβ1 at 640 pg/mL (TGFβ1 [6]): 90 pM | IC50 (pM), CAGA12-luciferase reporter gene assay in A549 cells, TGFβ2 at 480 pg/mL (TGFβ2 [7]): > 10000 pM | Kd (TGFβ1 [8]): 0.025 nM | Kd (TGFβ1 [9]): 0.02 nM | Kd (TGFβ2 [10]): 11 nM

B3: BMPRII-Fc:ALK3-Fc heterodimer (Fc fusion)
chain 1: SQNQERLCAFKDPYQQDLGIGESRISHENGTILCSKGSTCYGLWEKSKGDINLVKQGCWSHIGDPQECHYEECVVTTTPPSIQNGTYRFCCCSTDLCNVNFTENFPPPDTTPLSPPHSFNRDETGGGTHTCPPCPAPELLGGPSVFLFPPKPKDTLMISRTPEVTCVVVDVSHEDPEVKFNWYVDGVEVHNAKTKPREEQYNSTYRVVSVLTVLHQDWLNGKEYKCKVSNKALPAPIEKTISKAKGQPREPQVYTLPPSRKEMTKNQVSLTCLVKGFYPSDIAVEWESNGQPENNYKTTPPVLKSDGSFFLYSKLTVDKSRWQQGNVFSCSVMHEALHNHYTQKSLSLSPGK
chain 2: GAQNLDSMLHGTGMKSDSDQKKSENGVTLAPEDTLPFLKCYCSGHCPDDAINNTCITNGHCFAIIEEDDQGETTLASGCMKYEGSDFQCKDSPKAQLRRTIECCRTNLCNQYLQPTLPPVVIGPFFDGSIRTGGGTHTCPPCPAPELLGGPSVFLFPPKPKDTLMISRTPEVTCVVVDVSHEDPEVKFNWYVDGVEVHNAKTKPREEQYNSTYRVVSVLTVLHQDWLNGKEYKCKVSNKALPAPIEKTISKAKGQPREPQVYTLPPSREEMTKNQVSLTCLVKGFYPSDIAVEWESNGQPENNYDTTPPVLDSDGSFFLYSDLTVDKSRWQQGNVFSCSVMHEALHNHYTQKSLSLSPG
notes: C-terminal Lys optional; also called BMPRII-Fc:ALK3 heterodimer
off-rate ratio against ALK3-Fc homodimer (BMP6 [11]): ~10 fold | Kd (BMP2): 0.051 nM | koff (BMP2): 0.00015 s⁻¹ | kon (BMP2): 2.9e+06 M⁻¹ s⁻¹ | Kd (BMP4): 0.1 nM | koff (BMP4): 9.1e-05 s⁻¹ | kon (BMP4): 910000 M⁻¹ s⁻¹ | Kd (BMP6 [12]): 1.6 nM | koff (BMP6 [12]): 0.00059 s⁻¹ | kon (BMP6 [12]): 360000 M⁻¹ s⁻¹ | Kd (BMP5 [13]): 3.2 nM | koff (BMP5 [13]): 0.0014 s⁻¹ | kon (BMP5 [13]): 430000 M⁻¹ s⁻¹ | Kd (BMP7): 1 nM | koff (BMP7): 0.012 s⁻¹ | kon (BMP7): 1.2e+07 M⁻¹ s⁻¹ | binding result (BMP9 [14]): no binding | Kd (BMP10 [15]): 2.4 nM | koff (BMP10 [15]): 0.0016 s⁻¹ | kon (BMP10 [15]): 680000 M⁻¹ s⁻¹ | Kd (GDF6): 1.4 nM | koff (GDF6): 0.0019 s⁻¹ | kon (GDF6): 1.4e+06 M⁻¹ s⁻¹ | Kd (BMP15): 6 nM | koff (BMP15): 0.0055 s⁻¹ | kon (BMP15): 910000 M⁻¹ s⁻¹
